# Test results as given in PMC9713952.
# T1: MBP-RAD51AP1-His6 WT (UniProt Q96B01 1-352)
# T1 sequence: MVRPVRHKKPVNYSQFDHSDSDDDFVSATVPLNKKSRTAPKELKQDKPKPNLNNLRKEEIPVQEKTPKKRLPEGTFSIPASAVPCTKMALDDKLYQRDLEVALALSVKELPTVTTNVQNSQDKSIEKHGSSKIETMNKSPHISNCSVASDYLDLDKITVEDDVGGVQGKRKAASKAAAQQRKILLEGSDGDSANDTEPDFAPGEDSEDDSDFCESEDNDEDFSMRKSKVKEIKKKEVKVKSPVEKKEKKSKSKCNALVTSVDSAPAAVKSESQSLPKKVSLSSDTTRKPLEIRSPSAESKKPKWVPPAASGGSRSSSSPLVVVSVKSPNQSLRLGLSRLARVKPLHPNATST
# Target: T1, MBP-RAD51AP1-His6 WT
# Experiment: EMSA
binder,measurement,value
TERRA R-loop (mixed) DNA 1: CATTGCATATTTAAAACATGTTGGATCTCAATTTCTATTTTATTTTTATTTTTTATTTCTTTATTTTACCATGAATTCAAATGACCTCTTATCAAGTGAC DNA 2: GTCACTTGATAAGAGGTCATTTGAATTCATCCTAACCCTAACCCTAACCCTAACCCTAACCCTAACCCTAAGAGATCCAACATGTTTTAAATATGCAATG RNA: UUAGGGUUAGGGUUAGGGUUAGGGUUAGGGUUAGGGUUAG,binding result,binds
